Patent publication US7045617

Biological target: T1, IRS727 peptide substrate
T1 chain: KKKLPATGDYMNMSPVGD

B1: insulin receptor protein tyrosine kinase (IRK), activated recombinant (protein)
chain: VFPCSVYVPDEWEVSREKITLLRELGQGSFGMVYEGNARDIIKGEAETRVAVKTVNESASLRERIEFLNEASVMKGFTCHHVVRLLGVVSKGQPTLVVMELMAHGDLKSYLRSLRPEAENNPGRPPPTLQEMIQMAAEIADGMAYLNAKKFVHRDLAARNCMVAHDFTVKIGDFGMTRDIYETDYYRKGGKGLLPVRWMAPESLKDGVFTTSSDMWSFGVVLWEITSLAEQPYQGLSNEQVLKFVMDGGYLDQPDNCPERVTDLMRMCWQFNPKMRPTFLEIVNLLKDDLHPSFPEVSFFHSEENK
Km app of the peptide substrate: Km app (IRS727)=280 µM
